Drawing on PMC9138527, this text covers binding signal (wt/wt protein/DNA and binding signal for 2 substances.

Where only a bound is given, the exact number is not on record here.

What all share (assay): EMSA
Background: Mobility shift assays separate free from complexed probe on a gel.

The test system of data set [1] is Protamine-like proteins mixture (PL-II, PL-III, PL-IV), 1 nM Cr(VI)-exposed mussels (Mytilus galloprovincialis). The note with it: mussels exposed to 1 nM Cr(VI); saturation not reached; DNA (150 ng pGEM3 or 450 ng sperm DNA) plus PLs in ultrapure water, 30 uL, 5 min, room temperature; TBE to 1x added just before the run; 1% (plasmid) or 0.6% ….
Data set [2] deals with Protamine-like proteins mixture (PL-II, PL-III, PL-IV), 10 nM Cr(VI)-exposed mussels (Mytilus galloprovincialis). The note with it: mussels exposed to 10 nM Cr(VI), DNA (150 ng pGEM3 or 450 ng sperm DNA) plus PLs in ultrapure water, 30 uL, 5 min, room temperature, TBE to 1x added just before the run, 1% (plasmid) or 0.6% ….
The subject of data set [3] is Protamine-like proteins mixture (PL-II, PL-III, PL-IV), unexposed mussels (Mytilus galloprovincialis). The note with it: DNA (150 ng pGEM3 or 450 ng sperm DNA) plus PLs in ultrapure water, 30 uL, 5 min, room temperature, TBE to 1x added just before the run, 1% (plasmid) or 0.6% ….
The test system of data set [4] is Protamine-like proteins mixture (PL-II, PL-III, PL-IV), 100 nM Cr(VI)-exposed mussels (Mytilus galloprovincialis). The note with it: mussels exposed to 100 nM Cr(VI), DNA (150 ng pGEM3 or 450 ng sperm DNA) plus PLs in ultrapure water, 30 uL, 5 min, room temperature, TBE to 1x added just before the run, 1% (plasmid) or 0.6% ….
Setting [5] is: scale: wt/wt protein/DNA at almost complete saturation.

Turning to pGEM3 plasmid, the binding signal (wt/wt protein/DNA at saturation) in data set [1] is greater than 1.8; in data set [2], 0.8; in data set [3], 0.8; in data set [4], 0.8.
For sperm genomic DNA, the binding signal came out at 0.6 in data set [2] (setting [5]); 0.6 in data set [3] (unexposed, scale: wt/wt protein/DNA at almost complete saturation); 0.6 in data set [4] (setting [5]).
